Positions of bridges follow the written chain, without caps; N, C: chain ends. Non-standard residues stand in square brackets, D forms with d. Hyp = O=C(O)[C@@H]1C[C@@H](O)CN1; Dab = NCC[C@H](N)C(=O)O; Aib = CC(C)(N)C(=O)O
B1: Chem. 46 (peptide)
peptide: cyclo(C[Aib]H[dF][Dab]WC[Aib]H[dF][Dab]W)
modifications: disulfide 1-7
SMILES: CC1(C)NC(=O)[C@@H]2CSSC[C@H](NC(=O)[C@H](Cc3c[nH]c4ccccc34)NC(=O)[C@H](CCN)NC(=O)[C@@H](Cc3ccccc3)NC(=O)[C@H](Cc3c[nH]cn3)NC1=O)C(=O)NC(C)(C)C(=O)N[C@@H](Cc1c[nH]cn1)C(=O)N[C@H](Cc1ccccc1)C(=O)N[C@@H](CCN)C(=O)N[C@@H](Cc1c[nH]c3ccccc13)C(=O)N2
B2: Chem. 33 (peptide)
peptide: cyclo(C[dP]H[dF]RWC[dP]H[dF]RW)
modifications: disulfide 1-7
SMILES: N=C(N)NCCC[C@@H]1NC(=O)[C@@H](Cc2ccccc2)NC(=O)[C@H](Cc2c[nH]cn2)NC(=O)[C@H]2CCCN2C(=O)[C@@H]2CSSC[C@H](NC(=O)[C@H](Cc3c[nH]c4ccccc34)NC1=O)C(=O)N1CCC[C@@H]1C(=O)N[C@@H](Cc1c[nH]cn1)C(=O)N[C@H](Cc1ccccc1)C(=O)N[C@@H](CCCNC(=N)N)C(=O)N[C@@H](Cc1c[nH]c3ccccc13)C(=O)N2
B3: Chem. 38 (peptide)
peptide: cyclo(C[Aib][Hyp][dF]RWC[Aib][Hyp][dF]RW)
modifications: disulfide 1-7
SMILES: CC1(C)NC(=O)[C@@H]2CSSC[C@H](NC(=O)[C@H](Cc3c[nH]c4ccccc34)NC(=O)[C@H](CCCNC(=N)N)NC(=O)[C@@H](Cc3ccccc3)NC(=O)[C@@H]3C[C@@H](O)CN3C1=O)C(=O)NC(C)(C)C(=O)N1C[C@H](O)C[C@H]1C(=O)N[C@H](Cc1ccccc1)C(=O)N[C@@H](CCCNC(=N)N)C(=O)N[C@@H](Cc1c[nH]c3ccccc13)C(=O)N2
B4: Chem. 34 (peptide)
peptide: cyclo(C[dV]H[dF]RWC[dV]H[dF]RW)
modifications: disulfide 1-7
SMILES: CC(C)[C@H]1NC(=O)[C@@H]2CSSC[C@H](NC(=O)[C@H](Cc3c[nH]c4ccccc34)NC(=O)[C@H](CCCNC(=N)N)NC(=O)[C@@H](Cc3ccccc3)NC(=O)[C@H](Cc3c[nH]cn3)NC1=O)C(=O)N[C@H](C(C)C)C(=O)N[C@@H](Cc1c[nH]cn1)C(=O)N[C@H](Cc1ccccc1)C(=O)N[C@@H](CCCNC(=N)N)C(=O)N[C@@H](Cc1c[nH]c3ccccc13)C(=O)N2
B5: Chem. 43 (peptide)
peptide: CXHFXWCXHFXW
modifications: Aib 2, 8; D-Phe 4, 10; AGP 5, 11; disulphide Cys1-Cys7; head-to-tail amide Cys1-Trp12
B6: Chem. 86 (peptide)
peptide: cyclo(C[dK]H[dF]HWC[dK]H[dF]HW)
modifications: disulfide 1-7
SMILES: NCCCC[C@H]1NC(=O)[C@@H]2CSSC[C@H](NC(=O)[C@H](Cc3c[nH]c4ccccc34)NC(=O)[C@H](Cc3c[nH]cn3)NC(=O)[C@@H](Cc3ccccc3)NC(=O)[C@H](Cc3c[nH]cn3)NC1=O)C(=O)N[C@H](CCCCN)C(=O)N[C@@H](Cc1c[nH]cn1)C(=O)N[C@H](Cc1ccccc1)C(=O)N[C@@H](Cc1c[nH]cn1)C(=O)N[C@@H](Cc1c[nH]c3ccccc13)C(=O)N2
B7: Chem. 6 (peptide)
peptide: cyclo(CH[dF]RW[dA]CH[dF]RW[dA])
modifications: disulfide 1-7
SMILES: C[C@H]1NC(=O)[C@H](Cc2c[nH]c3ccccc23)NC(=O)[C@H](CCCNC(=N)N)NC(=O)[C@@H](Cc2ccccc2)NC(=O)[C@H](Cc2c[nH]cn2)NC(=O)[C@@H]2CSSC[C@H](NC1=O)C(=O)N[C@@H](Cc1c[nH]cn1)C(=O)N[C@H](Cc1ccccc1)C(=O)N[C@@H](CCCNC(=N)N)C(=O)N[C@@H](Cc1c[nH]c3ccccc13)C(=O)N[C@H](C)C(=O)N2
B8: Chem. 41 (peptide)
peptide: CXHFXWCXHFXW
modifications: Aib 2, 8; D-Phe 4, 10; Cit 5, 11; disulphide Cys1-Cys7; head-to-tail amide Cys1-Trp12

The binders below were run against human melanocortin 4 receptor (human) (UniProt P32245) (assay: cell-based or functional assay).
Sequence of human melanocortin 4 receptor (human) (P32245 whole entry): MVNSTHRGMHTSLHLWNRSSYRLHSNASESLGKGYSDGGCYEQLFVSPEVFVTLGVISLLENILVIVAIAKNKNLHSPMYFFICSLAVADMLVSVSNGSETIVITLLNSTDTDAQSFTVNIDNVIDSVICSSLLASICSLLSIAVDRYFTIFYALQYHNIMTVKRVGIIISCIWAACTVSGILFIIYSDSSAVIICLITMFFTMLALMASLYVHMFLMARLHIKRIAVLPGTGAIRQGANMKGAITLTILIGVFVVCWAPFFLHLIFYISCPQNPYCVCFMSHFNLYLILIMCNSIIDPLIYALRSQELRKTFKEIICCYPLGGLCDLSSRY

Binder | MC4R cAMP EC50 [nM]
B1 | 5.65
B2 | 19.8
B3 | 4.22
B4 | 0.12
B5 | 0.44
B6 | 14.5
B7 | 0.06
B8 | 1.34

Each binder was assayed against human melanocortin 1 receptor (human), Q01726 (assay: cell-based or functional assay).
Sequence of human melanocortin 1 receptor (human), Q01726 (Q01726 whole entry): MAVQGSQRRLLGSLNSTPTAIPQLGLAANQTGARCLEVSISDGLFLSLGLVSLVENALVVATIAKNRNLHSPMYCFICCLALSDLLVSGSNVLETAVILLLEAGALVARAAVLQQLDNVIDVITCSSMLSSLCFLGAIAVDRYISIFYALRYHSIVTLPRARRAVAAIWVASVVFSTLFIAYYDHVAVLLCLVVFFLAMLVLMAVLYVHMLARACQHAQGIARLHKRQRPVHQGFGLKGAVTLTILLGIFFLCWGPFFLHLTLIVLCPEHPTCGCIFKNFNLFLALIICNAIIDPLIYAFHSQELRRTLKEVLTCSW

Binder | MC1R cAMP EC50 [nM]
CAHFRWCAKKKR (modifications not checked) [Chem. 85] | 0.22
CAHFRWCAAAAR (modifications not checked) [Chem. 90] | 0.65
CAHFRWCAYFKW (modifications not checked) [Chem. 80] | 8.65
CAHFRWCAAAAR (modifications not checked) [Chem. 89] | 0.59
CAHFRWCPPERW (modifications not checked) [Chem. 112] | 30.2
CAHFRWCAKKKR (modifications not checked) [Chem. 59] | 0.16
CAHFRWCAHFRW (modifications not checked) [Chem. 56] | 35.3
CAHFRWCAAAAW (modifications not checked) [Chem. 87] | 1.39
CAHFRWCAEEEW (modifications not checked) [Chem. 44] | 31.9
CAHFRWCAHFRW (modifications not checked) [Chem. 8] | 1.76
CAHFRWCAAAAW (modifications not checked) [Chem. 88] | 1.31
CAHFRWCKKKR (modifications not checked) [Chem. 101] | 0.19
CAHFRWCAHFRW (modifications not checked) [Chem. 10] | 4.88
CAHFRWCRFFNA (modifications not checked) [Chem. 12] | 3.97
CAHFRWCAEEAW (modifications not checked) [Chem. 102] | 14.3
CAHFRWCAAFAW (modifications not checked) [Chem. 11] | 2.17
CAHFRWCAHFRW (modifications not checked) [Chem. 111] | 0.31
CAHFRWCRFFNAF (modifications not checked) [Chem. 13] | 6.36

Each binder was assayed against human melanocortin 4 receptor (human), P32245 (assay: cell-based or functional assay).
Sequence of human melanocortin 4 receptor (human), P32245 (P32245 whole entry): as the sequence (P32245 whole entry) above

Binder | MC4R cAMP EC50 [nM]
CAHFRWCAKKKR (modifications not checked) [Chem. 85] | 0.01
CAHFRWCAAAAR (modifications not checked) [Chem. 90] | 0.01
CAHFRWCAYFKW (modifications not checked) [Chem. 80] | 0.15
CAHFRWCAAAAR (modifications not checked) [Chem. 89] | 0.02
CAHFRWCPPERW (modifications not checked) [Chem. 112] | 0.19
CAHFRWCAKKKR (modifications not checked) [Chem. 59] | 0.004
CAHFRWCAHFRW (modifications not checked) [Chem. 56] | 0.44
CAHFRWCAAAAW (modifications not checked) [Chem. 87] | 0.04
CAHFRWCAEEEW (modifications not checked) [Chem. 44] | 1.53
CAHFRWCAHFRW (modifications not checked) [Chem. 8] | 0.02
CAHFRWCAAAAW (modifications not checked) [Chem. 88] | 0.02
CAHFRWCKKKR (modifications not checked) [Chem. 101] | 0.04
CAHFRWCRFFNA (modifications not checked) [Chem. 12] | 0.07
CAHFRWCAEEAW (modifications not checked) [Chem. 102] | 0.49
CAHFRWCAAFAW (modifications not checked) [Chem. 11] | 0.03
CAHFRWCAHFRW (modifications not checked) [Chem. 111] | 0.01
CAHFRWCRFFNAF (modifications not checked) [Chem. 13] | 0.1

What follows are binders tested against human melanocortin 4 receptor (human) (UniProt P32245) (assay: competition with 125-NDP-α-MSH, BHK human MC4R membranes).

Binder | Ki [nM]
B1 | 7.86
B2 | 27.8
B3 | 5.64
B4 | 0.88
B5 | 2.61
B6 | 9.6
B7 | 0.19
B8 | 5.39

These binders were tested against human melanocortin 4 receptor (human), P32245 in the same assay as above.

Binder | Ki [nM]
CAHFRWCAKKKR (modifications not checked) [Chem. 85] | 0.02
CAHFRWCAAAAR (modifications not checked) [Chem. 90] | 0.11
CAHFRWCAYFKW (modifications not checked) [Chem. 80] | 0.16
CAHFRWCAAAAR (modifications not checked) [Chem. 89] | 0.07
CAHFRWCPPERW (modifications not checked) [Chem. 112] | 1.21
CAHFRWCAKKKR (modifications not checked) [Chem. 59] | 0.01
CAHFRWCAHFRW (modifications not checked) [Chem. 56] | 1.82
CAHFRWCAAAAW (modifications not checked) [Chem. 87] | 0.17
CAHFRWCAEEEW (modifications not checked) [Chem. 44] | 50.9
CAHFRWCAHFRW (modifications not checked) [Chem. 8] | 0.08
CAHFRWCAAAAW (modifications not checked) [Chem. 88] | 0.2
CAHFRWCKKKR (modifications not checked) [Chem. 101] | 0.05
CAHFRWCRFFNA (modifications not checked) [Chem. 12] | 0.28
CAHFRWCAEEAW (modifications not checked) [Chem. 102] | 10.1
CAHFRWCAAFAW (modifications not checked) [Chem. 11] | 0.25
CAHFRWCAHFRW (modifications not checked) [Chem. 111] | 0.04
CAHFRWCRFFNAF (modifications not checked) [Chem. 13] | 0.26
